Test results taken from the supplement of paper PMC12042874.
± gives the uncertainty stated by the source.

Assay: amyloid nucleation score (Sup35N fusion, yeast selection) (log enrichment); library NNK2; higher = more nucleation; inactive = no reads after selection
Outline: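 Yeast lacking psi expressed peptides of 20 random codons fused to Sup35N, received 100 μM copper sulfate for 24 hours, and were then grown for 7 days at 30°C on medium lacking adenine and uracil. Illumina sequencing of input and output plasmid inserts provided the reads. Nucleation scores are DiMSum log enrichments of output over input, centred on the mode of non-aggregating sequences. Any sequence with under 100 input reads was excluded.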

Substance	amyloid nucleation score
AYSDNTFRQCSISVL	0.218 ± 0.8
CAGPPLLAKVGWIIMYSLVV	0.258 ± 0.55
CAIAWRMPLDRPPLKE	-0.627 ± 0.76
CARNTIAWVSNGMEFGSTGG	-0.582 ± 0.76
CAVDLFGVAIRALMFRSWGC	inactive
CAYGLFVNVFSVDADLRYKY	7.544 ± 0.022
CCMCCNDYCRPCFREGVWIG	-0.121 ± 1.1
CCSFNLISLYSKVRARSELP	8.765 ± 0.029
CCVEPVVRDVEVKIRSVVMN	0.123 ± 0.56
CCVMVELLVYFPM	1.88 ± 0.098
CDANM	0.785 ± 0.51
CDFMYRLMSTYTHTFLVSLR	1.41 ± 0.14
CDGTLCWKPGWYGDQKFERR	1.32 ± 0.36
CDLIASQSVIAIVNIMIRHV	6.63 ± 0.062
CDSAAFRPYLFSAENLSLYK	0.53 ± 0.66
CDSDSLGVTYVDDDCGYNYC	-1.03 ± 0.55
CDSKVENIWVDLNEMYFFCN	2.54 ± 0.17
CDVNYL	-0.681 ± 0.3
CEHDCSPTYDGLSYASFVRE	0.219 ± 0.5
CFAGLFLLSSEFFYRLTSRR	1.58 ± 0.12
CFCLPSNSNI	1.19 ± 0.09
CFCMINTCYSVINSFTYYGK	8.047 ± 0.066
CFDCNIRGSVWKVYISLIVG	inactive
CFEVFRFRRNRSLISPYQRM	0.612 ± 0.62
CFGISSS	-1.12 ± 0.36

Substance	amyloid nucleation score
CFGRMVTSNSSDLRYSNDRL	1.56 ± 0.097
CFHVITVNPGLQ	1.37 ± 0.39
CFLTNRTRNSYRPSGKPLDM	-0.702 ± 0.61
CFNTTNEMRSTSSWLRYGSV	3.83 ± 0.054
CFPPFLC	0.13 ± 1.1
CFRFLGREECKLTFGSDEMI	inactive
CFTCHTIYCVYSKFKRDMDR	3.56 ± 0.047
CFTGFRVIMVNICEWCVVVS	3.9 ± 0.098
CFVYLDLLYMEMMYHRQVAY	-0.552 ± 0.34
CGATQHSGTQVDLKLGFI	-0.321 ± 1.1
CGNSHMYMNAGDFT	-0.293 ± 0.79
CGVASSHFDGLLNR	2.58 ± 0.12
CGVPNYQLVVEWMMTNRVGN	-0.888 ± 0.78
CGWGYLTCPSRTVVWARAGV	1.35 ± 0.25
CGYLRDTWWFFCVTLRNRGV	1.12 ± 0.27
CHGRGISYQLLQNRNQQP	0.08 ± 0.79
CHIGN	inactive
CHLFVFLGLPRQWVKSRPYA	0.18 ± 0.22
CHSNKSCRSHIEEI	-0.377 ± 0.5
CHSRLLEYGENCNRIEYCLC	-0.459 ± 0.27
CIDVSLFNGHACWIVCFSPV	5.48 ± 0.045
CIELLYEYAIDLQAWVLLER	0.389 ± 0.66
CIEMFFETVFTKGLSRYACW	-0.55 ± 0.3
CIFFLVV	4.79 ± 0.071
CIGSLNVAVW	0.152 ± 0.21

Substance	amyloid nucleation score
CIGSRRGQSTSSVYRWSHYL	0.192 ± 0.46
CIINNKIQVAVKNDYLDHRE	4.69 ± 0.1
CILLTGPSYSLKLAYSDCLS	-1.15 ± 0.43
CISSMVALMGGPWNEMLGTW	0.767 ± 0.74
CISTYN	-0.822 ± 0.44
CIYMSRSRRKCGCSLGTRYV	-0.393 ± 1
CKCPYFLCIRFWDVDSAMLS	2.21 ± 0.076
CKEDIISSEWYLSVGFA	inactive
CKLIFYTYPDYIYILIVKSS	inactive
CKRFFYFLGIPATPDRSAFS	-0.588 ± 0.76
CKRSWVSYMHW	-0.593 ± 1.1
CKSFNSFSETPKYAKVVPRA	0.633 ± 0.56
CLGFGRSSPTGYNTCVVRNY	-0.493 ± 1.1
CLGRLMVYSAYYVHLYGVTI	-1.29 ± 0.62
CLGTWPNLLGSISTMYAD	0.854 ± 0.53
CLIVFIADTAAYIKVSMSSV	inactive
CLLWVAQYVQAMEGVALSVG	1.5 ± 0.21
CLNCI	-0.497 ± 1
CLNWKYKNRELQVFNDSRVV	-2.77 ± 0.75
CLPGSH	0.535 ± 0.74
CLPNTST	0.075 ± 0.2
CLQFLSRYRVWPSHSFWGEY	3.68 ± 0.07
CLQSPLYFDWGSGIQISNWL	inactive
CLRGDNKISLDRSGGMTFGQ	1.79 ± 0.18
CLSCANL	0.486 ± 0.66

Substance	amyloid nucleation score
CLSDNC	-0.13 ± 0.74
CLSLSLVMSVGVLKSISQYS	-0.017 ± 1
CLSMFTVWSLAFASLSVTMR	-0.034 ± 0.45
CLSRLNVLWYSPFKHFILEC	-0.267 ± 0.45
CLTYYTCLTWKMPCGIRHQG	0.428 ± 0.22
CLWSTN	0.801 ± 0.58
CLYFFLSYRSCCINVFLGFC	-0.326 ± 1
CMAIDLPVHYS	0.005 ± 0.55
CMKKWFS	3.85 ± 0.075
CMREATFRLTSKFLSSFGL	4.04 ± 0.086
CMVNPVPWDCLVRKFMFVGA	-0.421 ± 0.35
CMWLLMTHPHKVTIMQ	7.262 ± 0.061
CNFLFYPFWCWLSICYFRSM	4.55 ± 0.085
CNPIGIMHN	inactive
CNPVAV	0.8 ± 0.66
CNVASFELVLRD	inactive
CNYVQIMLS	2.81 ± 0.056
CPHGCIQTARYQQ	1.19 ± 0.42
CPISCTYMEYTSWSSSRC	1.18 ± 0.44
CPLMNLYRNVFYVWKLNFLP	inactive
CPLRLTRGLKCRVYINWEHQ	0.354 ± 0.48
CPRVSVSSVLMGKLFL	-1.15 ± 0.54
CPSYSTMSTGFVERVLPTGR	1.53 ± 0.39
CPVLG	1.87 ± 0.32
CQIVGRHIGVRMCDDRVYRA	0.762 ± 0.6

Substance	amyloid nucleation score
CQLFMQSSRCIRRRFATSAC	-0.295 ± 0.76
CQRQRLNFY	-0.626 ± 1.1
CQSLIFASTYHRNSSFGKNV	2.92 ± 0.16
CQWSVGRLRSLRAESVVQFD	0.104 ± 0.35
CRAFVWQ	-0.889 ± 0.55
CRCLPKKGFHVLTVSRFRAS	inactive
CRGDRFSRSST	-0.217 ± 0.79
CRIFDTVSMLNSFYHGH	inactive
CRISVIFLYFSFFY	inactive
CRIVKRVRAADRRMWIMCLG	-0.256 ± 0.37
CRLRVDVGECDRGLYALRVW	1.21 ± 0.48
CRMYRSRCNCMCDRVVEMWG	-0.407 ± 0.4
CRNRVDECSIWRD	-0.046 ± 1
CRPGRLYVQIIFISMIRDNR	-0.513 ± 0.48
CRRSNFNYQGVLGYWHRFAG	-0.755 ± 1.1
CRSKASSSIRIPT	0.586 ± 0.81
CRTRL	0.505 ± 0.39
CRVRVTFG	-0.481 ± 1.1
CSAITGY	0.564 ± 0.23
CSCFWCRRRKNYKFLGGCGS	-1.25 ± 1.1
CSESFGCRTPPSLNMLVCN	-0.729 ± 1.1
CSGSLHERQYVRYDEVRRVG	-0.031 ± 0.55
CSIPCCVGHTLSLGRQFVFV	0.13 ± 0.43
CSKLFSRGPGLAFFQFFI	inactive
CSLAFVHRAIFSMSLLHSET	0.136 ± 0.4

Substance	amyloid nucleation score
CSLPCVTNWCRRRNMVSQPV	-1.11 ± 1.1
CSMMEPTMY	0.269 ± 0.41
CSMMNLKSFLADCSIPAFTG	-0.962 ± 0.64
CSPVLKSSFNALARKRMLAR	1.29 ± 0.35
CSQVALLNKLFLPG	-1.14 ± 0.38
CSVNNSSLCIVVVAWFCGLD	0.711 ± 0.45
CSVRSSAIYIRSCHHGWFYC	-1.19 ± 1.1
CSYPNTLNCELMGILCYVGN	6.47 ± 0.024
CSYSFDLTANICPISLNVVC	5.001 ± 0.043
CSYVAGETSLERSHCILGWS	0.161 ± 0.34
CTRSFVTQSDEDSPIGSDR	-1.39 ± 0.38
CTRVLW	-0.201 ± 0.32
CTTLLALHMWISCVIGWSR	0.172 ± 0.39
CTTYPAFLSSGNPNFIMRFL	-0.148 ± 0.51
CVCLD	0.1 ± 0.33
CVFNTFMNDKIIGRLWPTDW	2.91 ± 0.15
CVGIFDNDICVEFMMALRLD	-1.05 ± 0.64
CVKQWRTIIVTLYLGTLPK	4.21 ± 0.059
CVLDLNVMDGGLL	-1.26 ± 0.38
CVLDNGGTYNFRLRRMDHLI	-0.707 ± 0.79
CVLVFIVNKTYA	4.13 ± 0.06
CVLYCVGFN	6.483 ± 0.042
CVMALVYACRAAHTRPMAYS	inactive
CVMLMCRGDV	3.87 ± 0.091
CVMMSQAFF	5.22 ± 0.084

Substance	amyloid nucleation score
CVSADPFCPIEQFNVMILAL	-0.663 ± 0.42
CVSEDDCLDYPKV	2.29 ± 0.13
CVVDLDPCNGDAGLSSYTIS	0.594 ± 0.13
CWLAMN	-0.166 ± 0.8
CWNKEGRFTRVTMEHASRRA	0.973 ± 0.48
CWRVNRFYVQSSYMGFVWSV	-0.73 ± 1.1
CYHFCYYVLSLVWGQNPVIK	0.108 ± 0.65
CYSTLGLSG	0.516 ± 0.81
DAEIMMCYCKFSGFGSITWR	0.143 ± 0.5
DAKPVCIDGLFI	-0.839 ± 0.56
DAVMVWVGDV	0.179 ± 0.17
DAVRQGTL	0.102 ± 1.1
DAWFVINHHPIEYLSLRVWR	0.98 ± 0.27
DAWKLNTDIYSANRYFIDLV	-0.651 ± 0.27
DAWSCRRLF	inactive
DCECGLNSWKKVT	inactive
DCLFLKVSPLVHQYYWIGFD	0.306 ± 0.8
DCLNYFTTLIKLVSLVCWNG	-0.571 ± 0.79
DCLYRLSIKSSKAMVSHECR	-0.142 ± 0.79
DCTLAVLFYKTEFITPRAQW	2.28 ± 0.14
DDCCSVNAMHSANCMMVVR	0.09 ± 1
DDDNRNNLLWAMNADLGLRC	2.32 ± 0.091
